16 sequences from a protein production outcome set (Wang et al. 2014) can be followed below.

This series is described as follows: label from the status in PepcDB records.

As to “MPNRKASRNAYYFFVQEKIPELRRRGLPVARVADAIPYCSSDWALLREEEKEKYAEMAREWRAAQGKDPGPSEKQKPVFT”, the protein production entry is recorded as “not failed”.

Take “MPNTIRLHRVLSAPPERVYRAFLDPLALAKWLPPEGFVCKVLEHDARVGGAYKMEFLAFASGQKHAFGGRYLELVPGERIRYTDRFDDAGLPGDMITTITLAPLSCGADLSIVQEGIPDAIPPENCYLGWQQSLKQLAALVEPDMPGLEHHHHHH”: the protein production result is reported as “not failed”. As for “MPPCYQHEEEKFFLNAKGQKEALPSIWDSPTKQLSVVVPSYNEEKRLPVMMDEALNYLEKRQKHDCTFTYEVIVVDDGSEDQTSKVALKYCQKYGSDKVRVITLVRNRGKGGAVRMGVFSSRGEKILMADADGATKFPDVEKLEKGLSDLQPWPEQMAIACGSRAHLEKESIAQRSYFRTFLMYGFHFLVWFLCVKGIRDTQCGFKLLTREAAARTFSSLHIERWAFDVELLYIAQCLQIPIAEVAVNWTEIEGSKLVPFWSWLQMGKDLLFIRLRYLTGAWRLKQTRKAS”, the entry is “failed”.

In the case of “MPPFLPLQVIKGVGPKRAVILAEAGIRSIADLYDCFPRRYLDRTTIKKIGALRDGETVTVVGSVTGTRFEGGGRGGSRFKAQITDGSGVLELTWFRGVHYFSKTIRSGELVAAHGRVTFFGRTPGMQHPDFDKLGGDDESGDGQRDDELYKTGAIIPIYPTTEAMKQAGLNSAALRRIVHRAFREHPLRITEYLSPEIIAANNLMPIGEAYRQLHFPDSAEQLERARYRMKWSELFFAQLFFALRRTEERRHLTSVRFERSGEKTASLHERLPFTMTSAQKQAVREIYHDLKSGRQMNRLLQGDVGSGKTLVAQFAMTLAVDNGLQAAFMAPTEILAFQHYAGLKNSLEPLGIRVALLTGRQKKKEREEKLARLERGEIDIAVGTHAIIEAGVQFRRLGLVIIDEQHRFGVLQRKALQEKAENPHVLLMTATPIPRTLTMGIYGDLDVSIIAEMPAGRKPIQTRLCCEAEKPELYRLLRKQIAEGRQAYIVYPLVEESEKIDLKAATESYEQLRREVFPELRLGLIHGQLPAAEKEAVMAEFRSGRLDILVGTTVIEVGVDVPNATIMVIEHAERFGISQLHQLRGRVGRGEHASSCFLVYTKLTGDAKDRLQAMAATGDGFRLSEIDLQIRGAGNMLGREQSGAASGLRIADLLTDGDIMRAARAAAFELIRRDETLTHPENALIRDYYMTHFRKRISLADVG”, the protein production entry was “failed”. Consider “MPPNTSFRLAALAVTVSGLLFSSSTLMAAETAETADLVLRNGNIYTVNQGQPWAEAVAVRDGRYVFIGSNAQAAEFIGPKTQVVDLNGSMAMPGINDVHAHPLDGGYEDIYSCNFSQKSSLDDILSQVSECAQKAGPGEWVIGSAWGSPRMAELSTTEALAKLDKVSNGRPVILRDDSYHNRWINSEAMRLAAITAQSVSPAGGVIVKDAKTGEPTGLLQEFPAFQHVQSLVPVRTEEQRLTSGRGATKTMVSLGITGVQEAVSSEVNLRIWSKIDRAEGLPLRIIGSIVSTPLLDEGAAGLELVARRDVYRTTNFFPDRFKFVLDGVPPAHTAKLIEPYLPTQAHGDHYHGDTHYTTEQVVEILSKLDKQGISTKLHAAGDGSLRLALDAVEQVRKINGPNGPMHQIAHTHLISPQDMPRFAQLRVAADLSPMLWFPSDMTNASVVTIGEERMKDFVPTVKLLRSGAVVAGGSDWPAGGPTPSPWIGIEGLVTRQNPLGDAPGTLAPEEAVDLPEAIRIYTINSAKAMGIEKETGSVELGKSADLIVLDRHLFNVPIKQVHRANVVKTYFKGQLVHSAPEKS”, for which the protein production result is “failed”.

As to “MPPTQAESVIRSIIREIGQECAAHGEIVSETLIAFMVKAVVLDPSNGFNMDRTLMKSDVQNLVKLCMTRLLDTKNPSLDTIKMQVYFDMNYTNRVEFLEEHHRVLESRLGSVTREITDNRACAKEELESLYRKIISYVLLRSGLGSPTDIKTVREVTAALQSVFPQAELGTFLTLSKKDKERQLKELTMIVTGIRLFNRDCGKGGEGIDDLPAVLHVAIPATMQHIDYQLETARSQVYRYTAILEKAANDPLMRAELQPYMLKEALYNIRQYEVFLQIILSDIITGAQEVEMMTKQLGAHLEQLKMTIKSKIAVPTSQVFPIFIALSTLWTSLQDETIVVGVLSNLFTHIQPFLGAHELYFPERVMQCHLNGATVKTDVCRMKEHMEDRVNVADFRKLEWLFPETTANFDKLLIQYRGFCAYTFAATDGLLLPGNPAIGILKYKEKYYTFNSKDAAYSFAENPEHYIDIVREKAKKNTELIQLLELHQQFETFIPYSQMRDADKHYIKPITKCESSTQTNTHILPPTIVRSYEWNEWELRRKAIKLANLRQKVTHSVQTDLSHLRRENCSQVYPPKDTSTQSMREDSTGVPRPQIYLAGLRGGKSEITDEVKVNLTRDVDET”, the protein production entry is recorded as “failed”. Consider “MPQGCDRPSHGLRLADEQGRCQIKFVASDSPAEQAGLMIGDEIVALNGLRVSADNFSRRLATYQAGQVLELTIFHDDQLQSFSLTLAEPQPQSYNLRPAATVTSLEHHHHHH”, for which the protein production entry is given as “failed”. With “MPQGKWFRFGYGIVLVLLIIYLGSLVDWIFRPIVVFVQTLFAPVIIAGILYYLFRPIVGLLSKKMNRGLSILILFLMIIGAFTAFSLIVGPELQRQFQSLYNNLPTLINQVRDTFIALQSNELFNRFQESETFQPEEMISRFVNSLNDIIGTIGANITGFIGALANFFIILVLVPFILFYLLKEGEKLPVQLLKLFNKKQQHEGRLILADMDKMLSSYIQGQIIVSFCVGILCYIAYLIIGLDYALILALVAMFTNVIPFVGPWIGTFPAVIVAFIDSPLTALIVVIVVVVIQQIESNLISPQVMGKKLAIHPITIIFILLVAGRFAGVVGMLLAVPTYAVGKVIVTHSYRLWKLRKQPVE”, the protein production entry is listed as “failed”.

Turning to “MPQSAPPNTRQAVLWNDVSGKAWVEMQPILDEILAPFERLVVDAGYPREGGNVLDIGCGAGATTLAMARRVGNDGNCVGLDISQPLVALATERTKLGEVANASFEVGDAQTYAFESGHFDAAISRFGVMFFDDPMAAFTNIRKAVRRRGKLAFVAWRSPLENDFMTTAVRAAAPFLPPAPAPDPDAPGQFAFADGAKVRRILEASGWASIEVEQADVPCRIAQRDLMAYATRLGPLGAALREVDRATAERITTVLPAAFAPFVDDGEARFNAACWLVTALA”, the protein production entry is given as “failed”. “MPQVKLKEGEPVDVAIRRFKRSCEKAGVLADVRKREFYEKPTQERKRKKAAAVKRYQKKLARESVRTTRLY”: the protein production entry is “failed”. For “MPRKKKTVEDPALTRALKVMEAGALPDADLAAEFATLAESYGKLLRKFNKTLVISDAYEAQHQAMAKKLEEATWKYRQLKDVALPICMYCKKIRSDDDYWQRLETFFCNHADIMFSHGICPDCIKTAYEKMGMNRRAMPLPDAAVTGQPAASPERQPVEDDALREMRALVRRSAFDGSPVAPEVEQFVEKYGKLLRRFSKIVSISDSYQSQLRELNARLELMARTDLLTGLANHWEMVMRLAAEQSRSERNGKVFSIVLADIDHFKKVNDTHGHQAGDRVIRGIADTLRTNIRREDICSRWGGEEFLIILPEADLPRAGAVAAKLLAKVRNTVVPWDGRDIRVTVSIGYGTSEPGMSVDELIRRVDDALYSAKAAGRDRFAAAGSRADV”, the protein production entry was “failed”.

In the case of “MPRLPRPPGSSTLRPGAVALGRPDPGPDLNSPEGLIRAARDWLGAGDDQRARLALDRALALRPRAAEALLLRGLVDQRRGDLAAAAEWFRRAIRARKDFADAHLNLGSCLIGLGQTEEALRQFGRAVALAPGMALAHLNLAQALLDQGDLGRARSAIDRARALAPDALPILLARARILAAQEDYEAAGAAWEDCVARAPGDVLVLNDAANFLLEDNRVEDSLALYRRAVALAPTSQEVRKNLIRALMTTGALDEAEAEAVGWLGTQGEDPRFRRLLGDVLVRAGRFPEARSAYVAAWDALPEDDNIPLGLTATGKMKSGEALGDRILERWTAQGAAGVVSADIAYAAGKVLDDRQDYDGAFAAFAQANRLKAADHPFDADAHDRFVEAVSTVFTPALFERFAGLGSPSETPVLVVGLPRSGTTLVEQIIASHPQAAGAGELTHVSRFEHSLPWRVGEAGRRGYPACVAGLDGAILDRFTAHYLHELTRIGPKARRVVDKLPNNFLRLGLFALAFPKARIIHCRRDLVDTCLSLYFQSFAGGHEYRHDLVSLGRYARAYLAMMAHWRRVLPLPMLEVDYADVVADQEKASRTMLEFLGLAWDEVVLRFHKREATVATASRWQVRQPIYATSVARWRRYEQHLSPLLLSLEGKKPSKG”, the protein production entry was “failed”. As for “MPRRFRQANARLTILSGGIPYLTNTMTLPDRFQQADAVPDDLQQLEARLAEAEDILLRDSPQAEATAREVLAGATAAGCQSLALRSRTVLGRSLAHQKRNEQATELLESVVAESRSAKMPELLVHAWLGLGLAHLNERRMARGLQAYLEALKICESLNAPELSLRVLTNLASAYAKLEQYDTAQPYLTEAHDTARQLGQPFDLMITSLNLACVCQLSGGTGAALTLIEEALRHAKTVASPRYLKSVLFHFSQLLLDLDRLSEALTYCEQGLNTDSGFGTATPQCELQVTHGEILYGLGRPAEARPALEAGLRAAQDLRLNDAEGRARRCYAQLLEDQDDYQGALAQVRALAQLEHDLREQLAAVNLQLEAERLRSETLAEKRRLKEEGRTQQRLAAQLRHDALTGLPNRLALHEALGQQVAADSAPFALLCLDLDHFKTVNHTLGQPAGDALLLYIGERVQAAVGEQGQTFRRGGNEFVVLLPAVRAAPDALTIAQTLLDTINEPLLLDGQALVVTASIGLALFPEDGRDSLTLQKNADLALHAAKQEGGQAQRYRNALSQAANERLELTQALRSGIGNGELVLHYQPIVEVRSGKTVAVEALVRWQHPRLGLLSPDRFIGLAEDNGLIVPLGRWVLNTALRQLAAWREHWPELRVSVNMAPRQLQQPGSCQEIRDALRAYALPPDALELEITEQTICDEEALEPFLPLIREGLRLAIDDFGTGYSSLSRLYRLPAQILKLDRSLIQDLSADNATDGPLVSALIAFAQRFGMQVTAEGIETAEQLHLLRQ”, the entry is “failed”; as for “MPRRKTKKREEGLSAIDLANEEMGYVLSLIERTDQSLFLTGKAGTGKSTLLRHICATTHKKFVVLAPTGLAALNVGGQTLHSFFKLPLRPIPPNDPDLSTRDRRVFDVFRYTNEHKKLIRSLDLIIIDEVSMVRADVIDAIDKLLGIYRGRQERPFGGVQMLFVGDLYQLEPVVTADDADILKRFYPNPFFFSSEALRATPPVTVELTKVYRQTEQAFVQILDRIRSGRLTEQDLQDINKCVNRHYEPPKDEPVITLATKRRHVSYINERQLEQLQGDPVTLYGTIEGDFPSSSLPTEEELTLKQDAQVIFVSNDKDRRWVNGTLGIVAGFDQESETIDVCLSTGEVVTVEPCIWDNKRFSYNEQANKVEEEVLGRFVQYPLKLAWAITVHKSQGLTFDRVIIDFSEGTFAGGQAYVALSRCRSLEGMVLRAPLAGRDVIVRREIIDFYSRANDLEIINGSLLRAEAEREYAQALRLWNARHYTEAIGAFSQALARKNELDDPLFRRLLVSKLFEMEYARRREEELRRELAEQREVMRRLAKEYVLMGNDCITEAHDAHAAIRCYDKALTLYPDYVEALVRKGKTLAGLNEITTSLSTLNQAIAIAPMDFTARFTLGQVLEKFAYYEEALDAYRQADGLNSQSRSLLKRLIALCEELDEEDEANLYRIRLRKNRDQTGHK”, “failed”.

On to “MPRWLIQHSPNTLTPEEKSHLAQQITQAYVGFGLPAFYVQVHFIEQPAGTSFIGGEQHPNFVALTIYHLARTMTSDEQRQGFLKRIDAFLTPMFEPKGIDWEYFVTEAPRDLWKINGLAPPAAGSEEEKVWVRENRPVRF”, for which the protein production entry was “not failed”.

Regarding “MPRWLPRAMVLALALIAAFQLGSWAFHQLTGLLINVLIAFFLALAIEPAVSWMAGRGMRRGFATFLVFLAVLIAAAGFVTLLGSMLAGQIVKMVEEFPDYLDSVINWVNGHFHTELRRVDIQEGLLRSDWLRNYVQNSATGVLDVSAQVLGGLFQLLTVLLFSFYFAADGPRLRRGLCSVLPPARQAEVLRAWEIAVDKTGGYLYSRGLMALVSGVAHYILLEILEVPYAPALAVWVGLVSQFIPTIGTYLAGALPMLIAFTVNPWYALWVLVFVVIYQQFENYVLQPKLTSKTVDIHPAVAFGSVIAGTALLGAVGALIAIPAVATLQAFLGAYVKRYDVTDDPRVHGRRGRRSVSGTSTRLRKLWTRRPEPGLEGPERTEGPERTEGGEGTDGTRDGGSS”, the protein production result was “failed”.
